Data on two substances can be found in patent US20100322897A1.

This experiment addresses human IL-17 receptor (IL-17R) on primary human bronchial epithelial (HBE) cells (human) (UniProt Q96F46). Put plainly: cell-based or functional assay.

As for “IL-17A (R&D Systems) (from UniProt Q16552 20-155) (ligand)”, the inhibition of DEFB104 mRNA upregulation by 100 ng/ml IL-17A in HBE cells after preincubation with 2 ug/ml anti-IL-17R antibody came out at 62.5%.

For “human IL-17F (R&D Systems) (from UniProt Q96PD4 31-163) (ligand)”, the inhibition of DEFB104 mRNA upregulation by 100 ng/ml IL-17F in HBE cells after preincubation with 2 ug/ml anti-IL-17R antibody came out at 77.6%.
